The source of these data is the array DNA melting data of Ke et al..

A short description of this data set: melting temperature; melt of duplexes. As to conditions: sodium 0.0675 M; strand 1 µM.
“CGACGTGCATGATGTGCTG+CAGCACATACCGCACGTCG ((((((((...((((((((+))))))))...))))))))”: the Tm came out at 47.5 °C. As to “CGACGTGCGTAATGTGCTG+CAGCACATCCCGCACGTCG (((((((((..((((((((+))))))))..)))))))))”, the Tm is 53.5 °C. “CGACGTGCCTCATGTGCTG+CAGCACATTGCGCACGTCG ((((((((...((((((((+))))))))...))))))))”: the Tm came to 47.5 °C. In the case of “CGACGTGCCATATGTGCTG+CAGCACATAGTGCACGTCG ((((((((..(((((((((+)))))))))..))))))))” it was 47.1 °C. In the case of “CGACGTGCATGATGTGCTG+CAGCACATTCTGCACGTCG (((((((((..((((((((+))))))))..)))))))))” it was 52.9 °C; in that of “CGACGTGCACCATGTGCTG+CAGCACATCGTGCACGTCG ((((((((((.((((((((+)))))))).))))))))))”, 49.6 °C. With “CGACGTGCGCAATGTGCTG+CAGCACATAGTGCACGTCG ((((((((.(.((((((((+)))))))).).))))))))”, the Tm was determined as 51.6 °C.

In the case of “CGACGTGCGATATGTGCTG+CAGCACATCCGGCACGTCG ((((((((...((((((((+))))))))...))))))))”, the Tm was found to be 49.3 °C.

Turning to “CGACGTGCGTGATGTGCTG+CAGCACATCCCGCACGTCG (((((((((.(((((((((+))))))))).)))))))))”, the Tm stood at 59.4 °C.

“CGACGTGCGTGATGTGCTG+CAGCACATACTGCACGTCG ((((((((...((((((((+))))))))...))))))))”: the Tm came out at 51.1 °C. In the case of “CGACGTGCTTAATGTGCTG+CAGCACATGGAGCACGTCG (((((((((..((((((((+))))))))..)))))))))”, the Tm is 54.4 °C.

As to “CGACGTGCACTATGTGCTG+CAGCACATCTCGCACGTCG ((((((((...((((((((+))))))))...))))))))”, the Tm was 41.6 °C. In the case of “CGACGTGCAATATGTGCTG+CAGCACATCCTGCACGTCG (((((((((..((((((((+))))))))..)))))))))” it was 49.6 °C.

Take “CGACGTGCCAGATGTGCTG+CAGCACATTGAGCACGTCG ((((((((...((((((((+))))))))...))))))))”: the midpoint of thermal melting (Tm) worked out at 52.1 °C. In the case of “CGACGTGCGGTATGTGCTG+CAGCACATATAGCACGTCG ((((((((..(((((((((+)))))))))..))))))))”, the Tm was 56.4 °C.

For “CGACGTGCTGCATGTGCTG+CAGCACATTCTGCACGTCG ((((((((.(.((((((((+)))))))).).))))))))”, the Tm came out at 51.8 °C. In the case of “CGACGTGCGCCATGTGCTG+CAGCACATATAGCACGTCG ((((((((...((((((((+))))))))...))))))))” it was 52.4 °C; in that of “CGACGTGCATCATGTGCTG+CAGCACATTTGGCACGTCG ((((((((...((((((((+))))))))...))))))))”, 48.2 °C; in that of “CGACGTGCGGTATGTGCTG+CAGCACATCCCGCACGTCG ((((((((((.((((((((+)))))))).))))))))))”, 59.9 °C.

On to “CGACGTGCAGCATGTGCTG+CAGCACATACTGCACGTCG ((((((((((.((((((((+)))))))).))))))))))”, for which the Tm was found to be 55.7 °C. In the case of “CGACGTGCATTATGTGCTG+CAGCACATCGAGCACGTCG ((((((((...((((((((+))))))))...))))))))” it was 47.4 °C; in that of “CGACGTGCAAAATGTGCTG+CAGCACATTACGCACGTCG ((((((((..(((((((((+)))))))))..))))))))”, 51.5 °C.

With “CGACGTGCAGCATGTGCTG+CAGCACATTGTGCACGTCG (((((((((..((((((((+))))))))..)))))))))”, the midpoint of thermal melting (Tm) amounted to 44.8 °C. “CGACGTGCAAGATGTGCTG+CAGCACATTTGGCACGTCG ((((((((.(.((((((((+)))))))).).))))))))”: the Tm came to 52.5 °C. In the case of “CGACGTGCGAGATGTGCTG+CAGCACATATCGCACGTCG ((((((((((.((((((((+)))))))).))))))))))” it was 60.4 °C. As for “CGACGTGCCCGATGTGCTG+CAGCACATCCCGCACGTCG ((((((((..(((((((((+)))))))))..))))))))”, the Tm amounted to 51.9 °C.

In the case of “CGACGTGCTATATGTGCTG+CAGCACATAGTGCACGTCG ((((((((..(((((((((+)))))))))..))))))))”, the Tm is 49 °C. For the substance “CGACGTGCGTAATGTGCTG+CAGCACATGGAGCACGTCG ((((((((...((((((((+))))))))...))))))))”, the Tm turned out to be 60.7 °C. For “CGACGTGCGTCATGTGCTG+CAGCACATTGCGCACGTCG (((((((((..((((((((+))))))))..)))))))))”, the melting temperature (Tm) was 54.7 °C. In the case of “CGACGTGCTTAATGTGCTG+CAGCACATGTGGCACGTCG ((((((((...((((((((+))))))))...))))))))” it was 51.9 °C. With “CGACGTGCAATATGTGCTG+CAGCACATTCGGCACGTCG ((((((((...((((((((+))))))))...))))))))”, the Tm is 49.5 °C. As to “CGACGTGCACGATGTGCTG+CAGCACATCACGCACGTCG ((((((((..(((((((((+)))))))))..))))))))”, the Tm was found to be 51.9 °C. For the substance “CGACGTGCGGCATGTGCTG+CAGCACATGATGCACGTCG ((((((((..(((((((((+)))))))))..))))))))”, the Tm stood at 58.7 °C. Turning to “CGACGTGCGCCATGTGCTG+CAGCACATAATGCACGTCG ((((((((...((((((((+))))))))...))))))))”, the Tm was 48.6 °C. In the case of “CGACGTGCCACATGTGCTG+CAGCACATAACGCACGTCG ((((((((...((((((((+))))))))...))))))))” it was 47.1 °C. Consider “CGACGTGCACCATGTGCTG+CAGCACATTTTGCACGTCG (((((((((..((((((((+))))))))..)))))))))”, for which the Tm came to 46.7 °C. In the case of “CGACGTGCAAGATGTGCTG+CAGCACATCTTGCACGTCG (((((((((((((((((((+)))))))))))))))))))”, the Tm turned out to be 63.8 °C.

On to “CGACGTGCTGGATGTGCTG+CAGCACATCCGGCACGTCG ((((((((.((((((((((+)))))))))).))))))))”, for which the Tm was found to be 62.9 °C. For the substance “CGACGTGCAGTATGTGCTG+CAGCACATAAGGCACGTCG ((((((((..(((((((((+)))))))))..))))))))”, the Tm was determined as 52.1 °C. In the case of “CGACGTGCACGATGTGCTG+CAGCACATAAAGCACGTCG ((((((((...((((((((+))))))))...))))))))” it was 46.8 °C; in that of “CGACGTGCCCGATGTGCTG+CAGCACATATTGCACGTCG ((((((((...((((((((+))))))))...))))))))”, 47.7 °C. In the case of “CGACGTGCCGTATGTGCTG+CAGCACATAGCGCACGTCG ((((((((..(((((((((+)))))))))..))))))))” it was 52.7 °C. In the case of “CGACGTGCACCATGTGCTG+CAGCACATAACGCACGTCG ((((((((...((((((((+))))))))...))))))))” it was 43.8 °C.

For “CGACGTGCACGATGTGCTG+CAGCACATTTGGCACGTCG ((((((((...((((((((+))))))))...))))))))”, the Tm was 46.8 °C. Turning to “CGACGTGCGTCATGTGCTG+CAGCACATAGTGCACGTCG ((((((((...((((((((+))))))))...))))))))”, the Tm came out at 45.9 °C. On to “CGACGTGCTAGATGTGCTG+CAGCACATACAGCACGTCG (((((((((..((((((((+))))))))..)))))))))”, for which the Tm was 53.2 °C.

Take “CGACGTGCAGAATGTGCTG+CAGCACATATCGCACGTCG ((((((((...((((((((+))))))))...))))))))”: the Tm came out at 50.9 °C. As to “CGACGTGCTCTATGTGCTG+CAGCACATGCTGCACGTCG ((((((((...((((((((+))))))))...))))))))”, the Tm was 47 °C. Turning to “CGACGTGCACGATGTGCTG+CAGCACATCCGGCACGTCG ((((((((..(((((((((+)))))))))..))))))))”, the Tm came out at 52.4 °C.

“CGACGTGCGATATGTGCTG+CAGCACATCTGGCACGTCG ((((((((.(.((((((((+)))))))).).))))))))”: the Tm is 50 °C. Regarding “CGACGTGCAATATGTGCTG+CAGCACATAACGCACGTCG ((((((((..(((((((((+)))))))))..))))))))”, the Tm amounted to 50.7 °C. In the case of “CGACGTGCGTAATGTGCTG+CAGCACATTGGGCACGTCG ((((((((..(((((((((+)))))))))..))))))))” it was 55 °C. In the case of “CGACGTGCTCAATGTGCTG+CAGCACATCTGGCACGTCG ((((((((...((((((((+))))))))...))))))))” it was 50.3 °C; in that of “CGACGTGCCGAATGTGCTG+CAGCACATCGCGCACGTCG ((((((((...((((((((+))))))))...))))))))”, 54.7 °C; in that of “CGACGTGCACCATGTGCTG+CAGCACATCTGGCACGTCG ((((((((...((((((((+))))))))...))))))))”, 43.7 °C. As to “CGACGTGCGATATGTGCTG+CAGCACATACTGCACGTCG ((((((((..(((((((((+)))))))))..))))))))”, the Tm stood at 52.6 °C. For the substance “CGACGTGCACGATGTGCTG+CAGCACATTAAGCACGTCG ((((((((...((((((((+))))))))...))))))))”, the Tm was found to be 46.5 °C. In the case of “CGACGTGCGCGATGTGCTG+CAGCACATGGCGCACGTCG ((((((((((.((((((((+)))))))).))))))))))” it was 62 °C. In the case of “CGACGTGCGCGATGTGCTG+CAGCACATATGGCACGTCG ((((((((...((((((((+))))))))...))))))))” it was 50.1 °C. In the case of “CGACGTGCTGCATGTGCTG+CAGCACATTCCGCACGTCG ((((((((.(.((((((((+)))))))).).))))))))” it was 49.3 °C. For “CGACGTGCAGCATGTGCTG+CAGCACATTACGCACGTCG ((((((((...((((((((+))))))))...))))))))”, the Tm is 45.1 °C.

As for “CGACGTGCGAGATGTGCTG+CAGCACATTCTGCACGTCG ((((((((...((((((((+))))))))...))))))))”, the Tm worked out at 52.9 °C. “CGACGTGCATGATGTGCTG+CAGCACATCTGGCACGTCG ((((((((..(((((((((+)))))))))..))))))))”: the Tm is 56.1 °C. Regarding “CGACGTGCAGCATGTGCTG+CAGCACATTCAGCACGTCG ((((((((.(.((((((((+)))))))).).))))))))”, the Tm was 47.8 °C. As to “CGACGTGCCTCATGTGCTG+CAGCACATGGCGCACGTCG ((((((((..(((((((((+)))))))))..))))))))”, the Tm worked out at 52.5 °C.

For “CGACGTGCTCCATGTGCTG+CAGCACATAATGCACGTCG ((((((((...((((((((+))))))))...))))))))”, the Tm amounted to 48.4 °C.

What is called Tm is the temperature at the midpoint of the melting transition.
